Laboratory results taken from paper PMC12668182, “Molecular basis for CSB stimulation of the SNM1A DNA repair nuclease” (Research Square, 2025).
Positions count from the first letter of the chain named. Names may count otherwise. “And” between values parts separate entries of the source, which are not always exact repeats. Identical values can stand only once.

B1: CSB (a.a. 1308-1493) (domain or fragment, human, UniProt Q03468 1308-1493, looked up)
chain: VSGVPTWTGHRGISGAPAGKKSRFGKKRNSNFSVQHPSSTSPTEKCQDGIMKKEGKDNVPEHFSGRAEDADSSSGPLASSSLLAKMRARNHLILPERLESESGHLQEASALLPTTEHDDLLVEMRNFIAFQAHTDGQASTREILQEFESKLSASQSCVFRELLRNLCTFHRTSGGEGIWKLKPEYC
notes: source: E. coli BL21(DE3) pLysS, purified (Ni-NTA, Superdex S75)
B2: N-Avi-Biotin-SNM1A (a.a. 698-1040), wild type (domain or fragment, human, UniProt Q6PJP8 698-1040, looked up)
chain: KKTCPFYKKIPGTGFTVDAFQYGVVEGCTAYFLTHFHSDHYAGLSKHFTFPVYCSEITGNLLKNKLHVQEQYIHPLPLDTECIVNGVKVVLLDANHCPGAVMILFYLPNGTVILHTGDFRADPSMERSLLADQKVHMLYLDTTYCSPEYTFPSQQEVIRFAINTAFEAVTLNPHALVVCGTYSIGKEKVFLAIADVLGSKVGMSQEKYKTLQCLNIPEINSLITTDMCSSLVHLLPMMQINFKGLQSHLKKCGGKYNQILAFRPTGWTHSNKFTRIADVIPQTKGNISIYGIPYSEHSSYLEMKRFVQWLKPQKIIPTVNVGTWKSRSTMEKYFREWKLEAGY
modifications: biotin on the N-terminal Avi tag
notes: SNM1A (DCLRE1A), human, core catalytic domain (MBL-beta-CASP), residues 698-1040; Immobilised in SPR through the biotinylated Avi tag; held on streptavidin mutein beads in the co-purifications; also called N-Avi-SNM1A_(698-1040); core catalytic domain of SNM1A; source: Sf9 insect cells (BirA co-expressed, D-biotin added), purified (streptavidin mutein matrix, Superdex S75); not shown: Avi …
B3: E864A-SNM1A (MBL-beta-CASP domain, a.a. 698-1040), N-Avi (domain or fragment, human, UniProt Q6PJP8 698-1040, looked up)
chain: B2 chain with E167A
modifications: biotin on the N-terminal Avi tag
notes: SNM1A (DCLRE1A), human, core catalytic domain, residues 698-1040, E864A; also called SNM1A-E864A; SNM1A (E864A); source: Sf9 insect cells (D-biotin added), purified (streptavidin mutein matrix, gel filtration)
B4: SNM1A (a.a. 698-1040), tag of the preparation not stated (domain or fragment, human, UniProt Q6PJP8 698-1040, looked up)
chain: B2 chain
notes: SNM1A (DCLRE1A), human, core catalytic domain, residues 698-1040; Used for HDX-MS, mass photometry and nuclease assays; Mass photometry legend gives an expected mass of 36 kDa; also called C-terminal SNM1A; source: purified from insect cells
B5: HaloTag-JF-552-labelled SNM1A (a.a. 698-1040), partially purified (domain or fragment, human, UniProt Q6PJP8 698-1040, looked up)
chain: B2 chain
modifications: JF-552 dye on the HaloTag
notes: SNM1A (DCLRE1A), human, catalytic C-terminal domain, residues 698-1040; Addgene vector (printed as Addgene: 58241) giving an N-terminal His-Halo tag; also called SNM1A (JF-552, green); SNM1A_(698-1040) for single-molecule studies; source: Expi293F, transfected, partially purified (Ni-NTA); not shown: HaloTag, N-terminal, kept
B6: CSB C-terminal domain (a.a. 1187-1493) (domain or fragment, human, UniProt Q03468 1187-1493, looked up)
chain: HHSVAEEETLEKHLRPKQKPKNSKHCRDAKFEGTRIPHLVKKRRYQKQDSENKSEAKEQSNDDYVLEKLFKKSVGVHSVMKHDAIMDGASPDYVLVEAEANRVAQDALKALRLSRQRCLGAVSGVPTWTGHRGISGAPAGKKSRFGKKRNSNFSVQHPSSTSPTEKCQDGIMKKEGKDNVPEHFSGRAEDADSSSGPLASSSLLAKMRARNHLILPERLESESGHLQEASALLPTTEHDDLLVEMRNFIAFQAHTDGQASTREILQEFESKLSASQSCVFRELLRNLCTFHRTSGGEGIWKLKPEYC
notes: pNIC28-Bsa4 vector: N-terminal His6 followed by a TEV site; no cleavage is described; also called C-terminal CSB construct; source: E. coli BL21(DE3) pLysS, purified (Ni-NTA, Superdex S75)
B7: CSB winged-helix domain (WHD, a.a. 1424-1493) (domain or fragment, human, UniProt Q03468 1424-1493, looked up)
chain: HDDLLVEMRNFIAFQAHTDGQASTREILQEFESKLSASQSCVFRELLRNLCTFHRTSGGEGIWKLKPEYC
notes: also called CSB-WHD; source: E. coli BL21(DE3) pLysS, purified (Ni-NTA, Superdex S75)
B8: CSB lacking the N-terminal domain (DN-CSB, a.a. 402-1493) (domain or fragment, human, UniProt Q03468 402-1493, looked up)
chain: YELKPLPKGGKRQKKVPVQEIDDDFFPSSGEEAEAASVGEGGGGGRKVGRYRDDGDEDYYKQRLRRWNKLRLQDKEKRLKLEDDSEESDAEFDEGFKVPGFLFKKLFKYQQTGVRWLWELHCQQAGGILGDEMGLGKTIQIIAFLAGLSYSKIRTRGSNYRFEGLGPTVIVCPTTVMHQWVKEFHTWWPPFRVAILHETGSYTHKKEKLIRDVAHCHGILITSYSYIRLMQDDISRYDWHYVILDEGHKIRNPNAAVTLACKQFRTPHRIILSGSPMQNNLRELWSLFDFIFPGKLGTLPVFMEQFSVPITMGGYSNASPVQVKTAYKCACVLRDTINPYLLRRMKSDVKMSLSLPDKNEQVLFCRLTDEQHKVYQNFVDSKEVYRILNGEMQIFSGLIALRKICNHPDLFSGGPKNLKGLPDDELEEDQFGYWKRSGKMIVVESLLKIWHKQGQRVLLFSQSRQMLDILEVFLRAQKYTYLKMDGTTTIASRQPLITRYNEDTSIFVFLLTTRVGGLGVNLTGANRVVIYDPDWNPSTDTQARERAWRIGQKKQVTVYRLLTAGTIEEKIYHRQIFKQFLTNRVLKDPKQRRFFKSNDLYELFTLTSPDASQSTETSAIFAGTGSDVQTPKCHLKRRIQPAFGADHDVPKRKKFPASNISVNDATSSEEKSEAKGAEVNAVTSNRSDPLKDDPHMSSNVTSNDRLGEETNAVSGPEELSVISGNGECSNSSGTGKTSMPSGDESIDEKLGLSYKRERPSQAQTEAFWENKQMENNFYKHKSKTKHHSVAEEETLEKHLRPKQKPKNSKHCRDAKFEGTRIPHLVKKRRYQKQDSENKSEAKEQSNDDYVLEKLFKKSVGVHSVMKHDAIMDGASPDYVLVEAEANRVAQDALKALRLSRQRCLGAVSGVPTWTGHRGISGAPAGKKSRFGKKRNSNFSVQHPSSTSPTEKCQDGIMKKEGKDNVPEHFSGRAEDADSSSGPLASSSLLAKMRARNHLILPERLESESGHLQEASALLPTTEHDDLLVEMRNFIAFQAHTDGQASTREILQEFESKLSASQSCVFRELLRNLCTFHRTSGGEGIWKLKPEYC
notes: Cloned by InFusion from the full-length CSB pFastBac vector

Tests used:
[1] = target: B2; assay: SPR; multi-cycle; SNM1A immobilised via biotinylated N-terminal Avi tag (~4000 RU); two-fold dilutions from 2 uM, 300 s injection, 1200 s dissociation; regeneration with 1 M NaCl; apparent KD; settings: both partners purified
[2] = target: T1, full-length CSB (ERCC6), wild type, recombinant (human, UniProt Q03468 1-1493); assay: SPR; single-cycle; SNM1A immobilised via biotinylated N-terminal Avi tag on a Series S SA surface (~4000 RU); CSB constructs as analytes, 5 or 6 two-fold dilutions from 500 nM or 1 uM; 20 mM HEPES pH 7.5, 150 mM NaCl, 0.5 mM TCEP; 1:1 Langmuir fit; apparent KD; settings: both partners purified
T1 construct: CSB (ERCC6), human, full length, a.a; A TEV site follows the N-terminal tags, but no cleavage is described; also called FL-CSB; WT-CSB; source: Sf9 insect cells, purified (Ni-NTA, Superdex S200, HiTrap SP)

[3] = target: T1, full-length CSB (ERCC6), wild type, …; assay: mass photometry; CSB and SNM1A mixed at 200 nM each, 5 min at room temperature, diluted 10-fold into the gasket; 50 mM HEPES pH 7.5, 300 mM NaCl, 0.5 mM TCEP; KD from mass counts; settings: both partners purified
[4] = target: T2, HaloTag-CSB, full length, JaneliaFluor-labelled (human, UniProt Q03468 1-1493, JaneliaFluor dye (JF552 or JF635) on the HaloTag); assay: single-molecule fluorescence on tethered DNA (SMADNE, LUMICKS C-Trap); partially purified HaloTag-JF-552 SNM1A added to HaloTag-CSB (JF635) nuclear extract, on lambda dsDNA; category 9 colocalisation events; apparent constants; DNA present; settings: one partner purified
T2 construct: CSB (ERCC6), human, full length, codon-optimised for mammalian expression; Vectors with N-terminal HaloTag under a CMV promoter (Promega pFN28A or Addgene 58241, both used on separate days); also called CSB (JF-635, red); CSB (JF552, green); source: Expi293F, transfected, in nuclear extract; not shown: HaloTag, N-terminal, kept

[5] = target: T2, HaloTag-CSB, full length, …; assay: single-molecule fluorescence on tethered DNA (SMADNE, LUMICKS C-Trap); partially purified HaloTag-JF-552 SNM1A added to HaloTag-CSB (JF635) nuclear extract, on a site-specific ICL flap repair intermediate in 12 kb DNA; apparent constants; DNA present; settings: one partner purified
[6] = target: B2; assay: SPR; single-cycle; SNM1A immobilised via biotinylated N-terminal Avi tag on a Series S SA surface (~4000 RU); CSB constructs as analytes, 5 or 6 two-fold dilutions from 500 nM or 1 uM; 20 mM HEPES pH 7.5, 150 mM NaCl, 0.5 mM TCEP; 1:1 Langmuir fit; apparent KD; settings: both partners purified
[7] = target: B3; assay: as above; settings: both partners purified
[8] = target: B2; assay: pull-down + SEC; co-purification: CSB construct (eluted from Ni-NTA, desalted) incubated with N-Avi-Biotin-SNM1A on streptavidin mutein beads, washed (500 mM NaCl, 1 mM Mg2+), eluted with 5 mM D-biotin, run on Superdex S200 GL 10/300; SDS-PAGE, MS and calibration curve; settings: both partners purified
[9] = target: the molecule itself; assay: SEC-MALS; DN-CSB alone, 5 uM; monomer to dimer

Binder: B1
binding result [1]: binds

Binder: B2
Kd [2]: 4.8 nM and 4 nM

Binder: B3
Kd [2]: 8 nM

Binder: B4
Kd [3]: 499 nM

Binder: B5
apparent KD of SNM1A for CSB-bound lambda dsDNA [4]: 17.5 nM
apparent KD of SNM1A for the CSB-bound ICL repair intermediate [5]: 45 nM

Binder: B6
Kd [6]: 10.7 nM and 12 nM
Kd [7]: 29 nM
stoichiometry N [8]: 2

Binder: B7
Kd [6]: 89 nM
Kd [7]: ~1000 nM
stoichiometry N [8]: 1

Binder: B8
stoichiometry N [9]: 2
